Experiment [1] addresses acyl-CoA oxidase isoform Aox1p (Yarrowia lipolytica). The experiment is described as follows: co-IP.
Experiment [2] has the same target. Put plainly: co-IP. This is another data set of the same source.

Like-named read-outs stand apart in the source and are kept apart here.

Usually stoichiometry N stands for the number of molecules, sites or subunits per partner or assembly. For the substance acyl-CoA oxidase isoform Aox4p (enzyme), the stoichiometry N in experiment [1] and in experiment [2] was 1 in each case.

Regarding acyl-CoA oxidase isoform Aox3p (enzyme), the stoichiometry N in experiment [1] and in experiment [2] was 1 throughout.

acyl-CoA oxidase isoform Aox5p (enzyme): the stoichiometry N in experiment [1] and in experiment [2] was 1 each time.

Turning to acyl-CoA oxidase isoform Aox2p (enzyme), the stoichiometry N in experiment [1] and in experiment [2] was 1 in each case.

Source of the values: publication PMC2173332.
